Measured values reported in paper PMC2838536 (Human Molecular Genetics, 2010).
Each block holds one binder with its values, some of them ahead of it.

Experiments:
[1] = molecular target: GST-Magmas_(F92G) (in MagmasJ+T) (human); test: pull-down
[2] = molecular target: T1, his6-tagged full-length Pam18 (S. cerevisiae, UniProt Q07914 1-168); test: pull-down
T1 sequence: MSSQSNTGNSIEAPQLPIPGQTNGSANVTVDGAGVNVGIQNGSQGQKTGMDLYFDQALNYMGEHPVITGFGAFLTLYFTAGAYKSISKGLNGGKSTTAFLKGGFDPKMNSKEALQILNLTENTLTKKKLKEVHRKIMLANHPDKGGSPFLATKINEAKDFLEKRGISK

fold reduction in the binding affinity against wild-type Magmas [1]: 2 fold
B1: his6-tagged Pam18J+T (domain or fragment)
chain: KSISKGLNGGKSTTAFLKGGFDPKMNSKEALQILNLTENTLTKKKLKEVHRKIMLANHPDKGGSPFLATKINEAKDFLEKRGISK

binding result [2]: binds
B2: full-length GST-Magmas (natural protein)
chain: MAKYLAQIIVMGVQVVGRAFARALRQEFAASRAAADARGRAGHRSAAASNLSGLSLQEAQQILNVSKLSPEEVQKNYEHLFKVNDKSVGGSFYLQSKVVRAKERLDEELKIQAQEDREKGQMPHT
